Measurements as given in patent US20260217854A1.

Molecular target: coil 2 domain of TMCC3 protein (UniProt Q9ULS5)
Assay: ELISA on TMCC3 domain proteins

B1: mouse anti-TMCC3 8D6 monoclonal antibody (antibody, V domains shown)
VH: EIQLQQSGGELVKPGASVKISCTASGYSFTGYNMNWVKQSHGKSPEWIGNINPYYGSTSYNQKFKGKATLTVDKSSSTAYMQLNSLTSEDSAVYYCARWLGLGYAMDYWGQGTSVTVSS
VL: DIVLTQSPASLVVSLGQGATISCRASKSVSPSGYSSMHWYQQKPGQPPKLLIYLASNLESGVPARFSGSGSGTDFTLNIHPVEEEDAATYYCQHSRELPWTFGGGTKLEIKR
  Kd: 0.01 nM
